Assay results taken from paper PMC7749166 (Communications Biology, 2020).
Where a chain is given by its changes, count along the chain named.

Legend:
human C5aR (C5aR^WT) [1] = target: T1, human C5aR (C5aR^WT) (Homo sapiens, UniProt P21730); assay: FD-/FV-based AFM dynamic force spectroscopy (FNdY model) of ligand-functionalized tip vs wild-type C5aR; type: binding; conditions: FNdY fit
T1 construct: Flag (N); made in house; host or cells: HEK-293S GnTI- cells (BacMam baculovirus)
T1 sequence (P21730 1-350): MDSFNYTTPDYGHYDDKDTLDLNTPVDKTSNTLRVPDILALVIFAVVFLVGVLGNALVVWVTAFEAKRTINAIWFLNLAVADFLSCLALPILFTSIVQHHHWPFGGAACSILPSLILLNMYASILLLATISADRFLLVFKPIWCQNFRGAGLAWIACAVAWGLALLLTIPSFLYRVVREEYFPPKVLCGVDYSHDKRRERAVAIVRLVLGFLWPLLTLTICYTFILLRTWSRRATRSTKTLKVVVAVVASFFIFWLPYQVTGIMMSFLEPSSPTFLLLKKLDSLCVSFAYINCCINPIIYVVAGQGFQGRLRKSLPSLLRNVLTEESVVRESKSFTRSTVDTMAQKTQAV
Protocol: (§1) The reconstituted C5aR sample solution (either wt-C5aR or mutants) was 20-fold diluted in fusion buffer solution (20 mM HEPES, 300 mM NaCl, and 25 mM MgCl2) and adsorbed on freshly cleaved mica for 15 min. After rinsing with imaging buffer (20 mM HEPES and 300 mM NaCl) the sample was transferred to the AFM.
(§2) Rectangular Si3N4 AFM cantilevers with silicon tips (BioLever mini, Bruker) were first cleaned with chloroform for 10 min, rinsed with ethanol, N2 dried, and then cleaned for 15 min in an ultraviolet radiation and ozone cleaner (UV-O, Jetlight, CA, USA). For the aminofunctionalization, the cantilevers were immersed in an ethanolamine solution (3.3 g ethanolamine in 6.6 ml DMSO) overnight and then rinsed in DMSO (3 × 1 min) and ethanol (3 × 1 min), followed by N2 drying. This was followed by the N-hydroxysuccinimide (NHS)-PEG27-acetal linker attachment. A 1 mg portion of the NHS-PEG27-acetal linker (JKU, Linz, Austria) was diluted in 0.5 ml chloroform with 30 µl triethylamine and the cantilevers were immersed in this solution for 2 h. After three rinsing steps of 10 min in chloroform and N2 drying, the cantilevers were immersed in a 1% citric acid solution for 10 min, rinsed with pure water (3 × 5 min), and dried with N2 once more. tris-NTA-derivatized AFM cantilevers were obtained by pipetting 100 µl of a 100 µM tris-N-nitrilotriacetic amine trifluoroacetate (Toronto Research Chemicals, Canada) (tris-NTA) solution onto the cantilevers, followed by the addition of 2 μl of a freshly prepared 1 M NaCNBH3 solution. The cantilevers were incubated for 1 h, then 5 μl of a 1 M ethanolamine solution pH 8.0 was added for 10 min to quench the reaction. tris-NTA cantilevers were further used to obtain C5a-derivatized tips. For this purpose, 100 μl of a 1 μM C5a protein solution was premixed with 5 μl NiCl2 5 mM and the mixture was pipetted onto the tris-NTA cantilevers. After 2 h of incubation time, the cantilevers were washed in HEPES buffer 3 × 5 min.
(§3) (JKU, Linz, Austria) dissolved in 0.5 ml of chloroform with 30 μl of triethylamine, then washed with chloroform and dried with N2. […] After 3 h of reaction, cantilevers were washed with PBS 3 × 5 min.
(§4) AFM experiments were performed with a Multimode 8 AFM equipped with a Nanoscope V controller (Bruker, Santa Barbara, CA, USA) operated in “PeakForce Tapping QNM mode”. All measurements were carried out in imaging buffer at room temperature (≈24 °C). For the high-resolution characterization of C5aR topographical features, triangular Si3N4 cantilevers (Scanasyst-Fluid+, Bruker) with a sharpened tetrahedral silicon tip of ≈2 nm radius, nominal spring constants of 0.35 N m^−1, and resonance frequency in liquid of ≈75 kHz were used. Multiparametric FD-based AFM measurements with derivatized tips were carried out using BioLever mini cantilevers (Bruker, Santa Barbara) having nominal spring constants of 0.1 N m^−1 and resonance frequency in liquid of ≈25 kHz. The spring constant was calibrated at the end of each experiment for all cantilevers used in this study using the thermal noise method.
(§5) In FD-based AFM measurements, the AFM cantilever is oscillated in a sinusoidal manner well below its resonance frequency, while the sample surface is contoured pixel-by-pixel. For each approach–retraction cycle of the oscillating cantilever, a force–distance curve is recorded. Multiparametric FD-based AFM height, Young’s modulus, and adhesion maps are then obtained from a pixel-by-pixel reconstruction of the acquired data. Overview FD-based AFM maps were acquired by scanning the sample at 1 Hz and a resolution of 512 × 512 pixels, using a force setpoint of ≈150 pN, a 2 kHz oscillation frequency, and a peak-to-peak oscillation amplitude of 100 nm. Adhesion maps were recorded using a scan rate of 0.2 Hz and 256 × 256 pixels. The functionalized AFM cantilever was oscillated at 0.25 kHz with peak-to-peak oscillation amplitudes of 100 nm.

human C5aR (C5aR^WT) [2] = assay: as above; type: binding; conditions: sum of C5aR + PMX53 and C5aR∆Tyr values
Protocol: as §1, §2, §3, §4, §5

C5aR^D282A = target: T2, C5aR^D282A (Homo sapiens, UniProt P21730, D282A); assay: FD-/FV-based AFM dynamic force spectroscopy vs D282A mutant; type: binding
T2 construct: Flag (N); His8 (C); made in house; host or cells: HEK-293S cells (BacMam baculovirus)
T2 sequence (P21730 1-350 D282A): T1 sequence (P21730 1-350) with D282A
Protocol: as §1, §2, §3
AFM experiments were performed with a Multimode 8 AFM equipped with a Nanoscope V controller (Bruker, Santa Barbara, CA, USA) operated in “PeakForce Tapping QNM mode”. All measurements were carried out in imaging buffer at room temperature (≈24 °C). […]
(§6) In FD-based AFM measurements, the AFM cantilever is oscillated in a sinusoidal manner well below its resonance frequency, while the sample surface is contoured pixel-by-pixel. For each approach–retraction cycle of the oscillating cantilever, a force–distance curve is recorded. […] Adhesion maps were recorded using a scan rate of 0.2 Hz and 256 × 256 pixels. […]

C5aR extracellular side = assay: AFM affinity imaging with C5a tip: specificity and receptor height; type: binding, human; conditions: free C5a in solution
Protocol: as §1
Rectangular Si3N4 AFM cantilevers with silicon tips (BioLever mini, Bruker) were first cleaned with chloroform for 10 min, rinsed with ethanol, N2 dried, and then cleaned for 15 min in an ultraviolet radiation and ozone cleaner (UV-O, Jetlight, CA, USA). For the aminofunctionalization, the cantilevers were immersed in an ethanolamine solution (3.3 g ethanolamine in 6.6 ml DMSO) overnight and then rinsed in DMSO (3 × 1 min) and ethanol (3 × 1 min), followed by N2 drying. This was followed by the N-hydroxysuccinimide (NHS)-PEG27-acetal linker attachment. […]
as §6
Several control experiments were designed to ensure that the measured interactions were indeed specific and the functionalization of the AFM tip successful. […]

[3] = C5a tip vs C5aR^WT incubated with PMX53 (effector site blocked; probes binding site), ± s.e.m.
[4] = FNdY fit, ± s.e.m., ligand-derivatized AFM tip, 20 mM HEPES, 300 mM NaCl, ≈24 °C

B1: C5a: C5a, a large 74-amino acid glycoprotein; endogenous ligand of C5aR (His6-tag at N-terminal end for AFM tips) (protein)
chain: TLQKKIEEIAAKYKHSVVKKCCYDGACVNNDETCEQRAARISLGPRCIKAFTECCVVASQLRANISHKDMQLGR
modifications: left off: His6, N-terminal, kept
Human C5aR (C5aR^WT) [1]; C5a tip vs C5aR^WT incubated with PMX53 (effector site blocked; probes binding site)
  residence time τ0.5: 0.2 ms
Human C5aR (C5aR^WT) [1]; [3]
  equilibrium force Feq: 29 ± 4 pN
  free energy ΔGbu: -3.9 ± 1.8 kcal/mol
Human C5aR (C5aR^WT) [1]; ± s.e.m., ligand-derivatized AFM tip, 20 mM HEPES, 300 mM NaCl, ≈24 °C
  binding equilibrium free energy ΔGbu: -13.6 ± 4.1 kcal/mol
Human C5aR (C5aR^WT) [1]; ± s.e.m., ligand-derivatized AFM tip, C5aR in DOPC/CHS liposomes on mica, 20 mM HEPES, 300 mM NaCl, ≈24 °C
  equilibrium force Feq: 46 ± 7 pN
Human C5aR (C5aR^WT) [1]; ligand-derivatized AFM tip, 20 mM HEPES, 300 mM NaCl, ≈24 °C
  residence time τ0.5: 0.6 ms
Human C5aR (C5aR^WT) [2]
  sum of binding free energy of both sites measured individually, ΔGbu (binding site+effector site): ~-8.6 ± 2.3 kcal/mol
C5aR^D282A; AFM, D282A vs WT
  drop of the ΔGbu vs wild type: four
C5aR^D282A; [4]
  binding equilibrium free energy ΔGbu: -3.4 ± 0.7 kcal/mol
  equilibrium force Feq: 27 ± 3 pN
C5aR^D282A; FNdY fit, ligand-derivatized AFM tip, 20 mM HEPES, 300 mM NaCl, ≈24 °C
  residence time τ0.5: 0.08 ms
C5aR extracellular side
  binding probability of C5a tip after blocking with free C5a: significantly reduces the binding probability
